{"source": "patent US20240307489A1", "about": "(WESTLAKE UNIVERSITY, published 2024)", "binders": {"B1": {"name": "cSFB-tagged wild-type DLL3 (ligand, human, UniProt Q9NYJ7 27-618, looked up)", "chain": "AGVFELQIHSFGPGPGPGAPRSPCSARLPCRLFFRVCLKPGLSEEAAESPCALGAALSARGPVYTEQPGAPAPDLPLPDGLLQVPFRDAWPGTFSFIIETWREELGDQIGGPAWSLLARVAGRRRLAAGGPWARDIQRAGAWELRFSYRARCEPPAVGTACTRLCRPRSAPSRCGPGLRPCAPLEDECEAPLVCRAGCSPEHGFCEQPGECRCLEGWTGPLCTVPVSTSSCLSPRGPSSATTGCLVPGPGPCDGNPCANGGSCSETPRSFECTCPRGFYGLRCEVSGVTCADGPCFNGGLCVGGADPDSAYICHCPPGFQGSNCEKRVDRCSLQPCRNGGLCLDLGHALRCRCRAGFAGPRCEHDLDDCAGRACANGGTCVEGGGAHRCSCALGFGGRDCRERADPCAARPCAHGGRCYAHFSGLVCACAPGYMGARCEFPVHPDGASALPAAPPGLRPGDPQRYLLPPALGLLVAAGVAGAALLLVHVRRRGHSQDAGSRLLAGTPEPSVHALPDALNNLRTQEGSGDGPSSSVDWNRPEDVDPQGIYVISAPSIYAREVATPLFPPLHTGRAGQRQHLLFPYPSSILSVK", "notes": "Expressed in HEK293T cells, pulled down on S beads; also called cSFB-DLL3; C-terminal SFB-fused DLL3; not shown: C-terminal SFB triple tag (S protein tag-2xFLAG tag-SBP tag)"}}, "target": "T1, LRP1 (low density lipoprotein receptor-related protein 1), endogenous in HEK293T cells (human, UniProt Q07954 20-4544)", "T1 construct": "Endogenous protein in HEK293T lysates (TAP-MS prey, co-IP); also called endogenous LRP1", "T1 sequence (Q07954 20-4544 limits assumed)": "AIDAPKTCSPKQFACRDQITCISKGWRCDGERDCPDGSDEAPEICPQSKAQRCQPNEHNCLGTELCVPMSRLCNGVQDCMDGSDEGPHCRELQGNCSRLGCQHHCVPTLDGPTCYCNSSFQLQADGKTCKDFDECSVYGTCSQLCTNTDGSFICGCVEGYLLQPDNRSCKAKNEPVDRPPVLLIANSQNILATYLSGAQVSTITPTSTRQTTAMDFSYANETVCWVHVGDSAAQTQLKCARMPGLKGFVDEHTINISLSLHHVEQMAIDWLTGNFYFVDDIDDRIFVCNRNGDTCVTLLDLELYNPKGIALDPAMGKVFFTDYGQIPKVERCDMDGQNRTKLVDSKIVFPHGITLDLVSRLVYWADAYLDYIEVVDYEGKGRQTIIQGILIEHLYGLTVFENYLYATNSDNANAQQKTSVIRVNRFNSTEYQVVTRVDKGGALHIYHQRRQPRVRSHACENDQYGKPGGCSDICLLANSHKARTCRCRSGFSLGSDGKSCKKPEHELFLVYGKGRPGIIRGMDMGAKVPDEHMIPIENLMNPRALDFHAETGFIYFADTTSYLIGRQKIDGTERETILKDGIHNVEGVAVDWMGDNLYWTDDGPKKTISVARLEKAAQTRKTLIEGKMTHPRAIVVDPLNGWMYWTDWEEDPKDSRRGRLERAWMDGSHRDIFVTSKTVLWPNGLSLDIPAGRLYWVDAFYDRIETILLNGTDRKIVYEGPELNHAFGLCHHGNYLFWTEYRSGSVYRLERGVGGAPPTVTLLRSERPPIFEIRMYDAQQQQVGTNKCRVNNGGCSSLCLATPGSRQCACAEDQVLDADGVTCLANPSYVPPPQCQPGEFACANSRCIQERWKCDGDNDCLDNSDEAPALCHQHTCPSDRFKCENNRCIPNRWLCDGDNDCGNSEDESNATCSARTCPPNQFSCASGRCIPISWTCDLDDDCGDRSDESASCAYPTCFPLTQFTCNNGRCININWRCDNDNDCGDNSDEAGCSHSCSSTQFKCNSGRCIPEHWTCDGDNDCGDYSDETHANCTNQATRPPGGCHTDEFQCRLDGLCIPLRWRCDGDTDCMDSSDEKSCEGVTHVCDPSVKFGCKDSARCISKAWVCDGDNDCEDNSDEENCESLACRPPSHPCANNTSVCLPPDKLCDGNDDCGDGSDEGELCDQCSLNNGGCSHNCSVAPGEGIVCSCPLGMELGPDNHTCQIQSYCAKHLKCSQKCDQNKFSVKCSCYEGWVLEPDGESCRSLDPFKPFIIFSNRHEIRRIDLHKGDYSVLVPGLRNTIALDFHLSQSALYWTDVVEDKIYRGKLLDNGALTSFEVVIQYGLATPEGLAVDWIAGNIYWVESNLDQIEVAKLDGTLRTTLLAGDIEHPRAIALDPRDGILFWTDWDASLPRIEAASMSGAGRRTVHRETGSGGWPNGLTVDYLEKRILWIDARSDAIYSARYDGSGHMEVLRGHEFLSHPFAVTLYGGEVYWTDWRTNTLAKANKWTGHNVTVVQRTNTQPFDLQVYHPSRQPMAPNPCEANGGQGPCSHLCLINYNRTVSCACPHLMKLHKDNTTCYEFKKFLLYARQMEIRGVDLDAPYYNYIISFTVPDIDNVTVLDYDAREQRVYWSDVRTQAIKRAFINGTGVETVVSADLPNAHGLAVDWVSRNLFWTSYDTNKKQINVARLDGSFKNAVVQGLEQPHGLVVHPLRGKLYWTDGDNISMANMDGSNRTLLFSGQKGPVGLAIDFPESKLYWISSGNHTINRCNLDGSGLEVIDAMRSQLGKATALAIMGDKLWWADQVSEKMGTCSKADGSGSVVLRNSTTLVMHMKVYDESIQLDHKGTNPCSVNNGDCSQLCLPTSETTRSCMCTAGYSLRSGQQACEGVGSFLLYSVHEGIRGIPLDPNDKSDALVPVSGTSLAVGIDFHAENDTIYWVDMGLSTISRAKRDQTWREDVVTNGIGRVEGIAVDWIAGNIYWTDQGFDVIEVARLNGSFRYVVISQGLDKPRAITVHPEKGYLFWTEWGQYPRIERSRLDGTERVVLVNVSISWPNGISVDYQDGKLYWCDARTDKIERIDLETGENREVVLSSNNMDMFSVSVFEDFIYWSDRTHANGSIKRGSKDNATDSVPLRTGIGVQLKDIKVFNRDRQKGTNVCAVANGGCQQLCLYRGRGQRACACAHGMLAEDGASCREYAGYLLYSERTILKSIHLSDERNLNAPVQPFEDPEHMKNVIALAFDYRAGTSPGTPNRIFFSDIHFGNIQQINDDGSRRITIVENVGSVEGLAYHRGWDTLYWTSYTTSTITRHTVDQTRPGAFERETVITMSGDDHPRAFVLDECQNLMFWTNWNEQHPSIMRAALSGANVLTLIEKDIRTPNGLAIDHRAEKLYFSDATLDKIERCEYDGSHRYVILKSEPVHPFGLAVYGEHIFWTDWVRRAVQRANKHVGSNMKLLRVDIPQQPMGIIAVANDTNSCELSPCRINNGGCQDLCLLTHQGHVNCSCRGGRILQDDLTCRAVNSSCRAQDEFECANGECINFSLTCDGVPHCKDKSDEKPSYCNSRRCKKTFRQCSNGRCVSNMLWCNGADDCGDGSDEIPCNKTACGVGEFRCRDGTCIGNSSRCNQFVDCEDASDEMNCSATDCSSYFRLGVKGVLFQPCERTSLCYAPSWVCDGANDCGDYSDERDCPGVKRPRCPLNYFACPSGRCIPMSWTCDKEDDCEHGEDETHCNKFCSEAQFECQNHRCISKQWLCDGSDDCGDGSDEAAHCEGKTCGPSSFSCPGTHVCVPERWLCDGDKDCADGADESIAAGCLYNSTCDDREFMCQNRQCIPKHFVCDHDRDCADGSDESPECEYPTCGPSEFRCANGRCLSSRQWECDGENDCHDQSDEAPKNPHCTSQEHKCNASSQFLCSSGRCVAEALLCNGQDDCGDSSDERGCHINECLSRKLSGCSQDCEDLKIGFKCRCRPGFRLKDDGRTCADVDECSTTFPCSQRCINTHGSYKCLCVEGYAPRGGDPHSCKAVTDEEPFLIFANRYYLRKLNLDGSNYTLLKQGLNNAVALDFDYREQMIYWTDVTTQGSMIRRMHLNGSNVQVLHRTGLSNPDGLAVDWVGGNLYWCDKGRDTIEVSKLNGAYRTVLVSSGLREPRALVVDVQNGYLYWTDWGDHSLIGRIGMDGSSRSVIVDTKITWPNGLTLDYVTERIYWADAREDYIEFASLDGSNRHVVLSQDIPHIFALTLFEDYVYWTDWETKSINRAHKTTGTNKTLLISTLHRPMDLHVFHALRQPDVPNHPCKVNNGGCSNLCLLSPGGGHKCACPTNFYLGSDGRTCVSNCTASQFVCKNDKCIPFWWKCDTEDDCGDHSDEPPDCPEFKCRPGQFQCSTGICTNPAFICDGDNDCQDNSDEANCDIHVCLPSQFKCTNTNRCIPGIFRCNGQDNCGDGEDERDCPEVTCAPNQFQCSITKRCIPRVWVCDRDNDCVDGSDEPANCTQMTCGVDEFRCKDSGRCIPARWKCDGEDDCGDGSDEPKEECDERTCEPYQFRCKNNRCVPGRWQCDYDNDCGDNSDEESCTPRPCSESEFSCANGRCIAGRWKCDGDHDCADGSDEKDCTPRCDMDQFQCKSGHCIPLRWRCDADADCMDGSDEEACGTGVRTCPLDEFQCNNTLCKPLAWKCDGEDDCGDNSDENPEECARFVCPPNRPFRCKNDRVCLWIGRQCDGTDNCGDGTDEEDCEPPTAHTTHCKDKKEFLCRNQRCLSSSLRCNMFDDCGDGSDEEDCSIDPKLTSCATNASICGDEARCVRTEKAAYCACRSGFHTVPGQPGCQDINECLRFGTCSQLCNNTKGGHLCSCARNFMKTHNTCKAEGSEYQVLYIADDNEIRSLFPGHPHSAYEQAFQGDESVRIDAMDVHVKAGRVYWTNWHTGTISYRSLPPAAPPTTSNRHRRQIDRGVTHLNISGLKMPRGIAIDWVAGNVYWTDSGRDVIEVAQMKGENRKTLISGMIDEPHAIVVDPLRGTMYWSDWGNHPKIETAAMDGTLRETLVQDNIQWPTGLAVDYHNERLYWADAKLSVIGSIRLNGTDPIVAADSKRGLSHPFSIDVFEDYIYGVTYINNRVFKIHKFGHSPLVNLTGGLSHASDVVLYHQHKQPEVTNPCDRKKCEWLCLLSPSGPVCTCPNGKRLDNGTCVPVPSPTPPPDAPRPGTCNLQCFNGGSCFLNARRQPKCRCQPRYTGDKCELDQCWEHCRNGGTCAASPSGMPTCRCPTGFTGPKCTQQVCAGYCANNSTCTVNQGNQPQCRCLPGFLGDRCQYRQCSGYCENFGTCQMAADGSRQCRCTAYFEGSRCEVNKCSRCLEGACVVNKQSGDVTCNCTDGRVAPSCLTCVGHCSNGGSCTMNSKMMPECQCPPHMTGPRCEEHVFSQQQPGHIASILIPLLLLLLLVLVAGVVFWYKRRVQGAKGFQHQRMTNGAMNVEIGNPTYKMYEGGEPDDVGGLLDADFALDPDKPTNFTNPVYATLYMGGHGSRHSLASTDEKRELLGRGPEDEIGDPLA", "assay": "TAP-MS of SFB-tagged Notch pathway proteins in HEK293T cells", "method": "We picked 12 clones of each bait for the follow-up experiments and confirmed the bait protein expression and localization using Western blotting and immunostaining, respectively. From which, we chose two clones of each bait with the correct subcellular localization and a moderate expression close to that of endogenous one as biological repeat for TAP-MS analysis. HEK293T cells stably expressing C-terminal SFB-fused Notch pathway proteins were selected via culture in medium containing 2 μg/ml puromycin. Protein expression was confirmed via immunostaining and Western blotting as described previously (Wang, W., Li, X., Huang, J., Feng, L., Dolinta, K. G., and Chen, J. (2014). Defining the protein-protein interaction network of the human hippo pathway. Mol Cell Proteomics 13, 119-131.).\nFor TAP experiments, the membrane-bound and soluble proteins of 2×10⁸ HEK293T cells were extracted using a membrane/soluble protein isolation kit (Beyotime, China) with protease inhibitors at 4° C. The insoluble pellets from the crude lysis step were briefly sonicated and incubated with TurboNuclease for 30 min at 37° C. with occasional vortexing to extract chromatin-bound protein complexes. The lysates were then centrifuged at 14,000 rpm for 30 min at 4° C., and the supernatant was collected as a chromatin fraction. […]", "data": [{"binder": "B1", "values": [{"measurement": "binding result", "result": "binds"}]}]}
